Experiment [1] has as its target SARS-2 RBD (wild-type SARS-CoV-2 receptor binding domain, monomer) (SARS-CoV-2) (UniProt P0DTC2). Nature of the experiment: BLI, Fab on FAB2G sensor, RBD as analyte, apparent KD.
The target of experiment [2] is WIV1 RBD (WIV1-CoV receptor binding domain, monomer) (WIV1-CoV). As to the kind of experiment: BLI, Fab on FAB2G sensor, RBD as analyte, apparent KD. A general note: BLI is a label-free optical method that tracks binding on a fibre tip over time.
Experiment [3] concerns the target SARS-1 RBD (SARS-CoV receptor binding domain, monomer) (SARS-CoV (SARS-1)) (UniProt P59594). Described as above.

This note sets out measurements from patent US20250032605A1.

In the case of B38 Fab, the values for the Kd (in experiment [1]; in the experiment with SARS-2^hg (row Trimer)) were 970 nM and 3200 nM, respectively.
CR3022 Fab: the Kd in experiment [2] was determined as 37 nM; in experiment [3], 27 nM.
